Experimental data published in IntAct's records for PubMed 35512704.

B1: Speckle-type POZ protein (Homo sapiens), O43791 (parent)
chain: MSRVPSPPPPAEMSSGPVAESWCYTQIKVVKFSYMWTINNFSFCREEMGEVIKSSTFSSGANDKLKWCLRVNPKGLDEESKDYLSLYLLLVSCPKSEVRAKFKFSILNAKGEETKAMESQRAYRFVQGKDWGFKKFIRRDFLLDEANGLLPDDKLTLFCEVSVVQDSVNISGQNTMNMVKVPECRLADELGGLWENSRFTDCCLCVAGQEFQAHKAILAARSPVFSAMFEHEMEESKKNRVEINDVEPEVFKEMMCFIYTGKAPNLDKMADDLLAAADKYALERLKVMCEDALCSNLSVENAAEILILADLHSADQLKTQAVDFINYHASDVLETSGWKSMVVSHPHLVAEAYRSLASAQCPFLGPPRKRLKQS
partner: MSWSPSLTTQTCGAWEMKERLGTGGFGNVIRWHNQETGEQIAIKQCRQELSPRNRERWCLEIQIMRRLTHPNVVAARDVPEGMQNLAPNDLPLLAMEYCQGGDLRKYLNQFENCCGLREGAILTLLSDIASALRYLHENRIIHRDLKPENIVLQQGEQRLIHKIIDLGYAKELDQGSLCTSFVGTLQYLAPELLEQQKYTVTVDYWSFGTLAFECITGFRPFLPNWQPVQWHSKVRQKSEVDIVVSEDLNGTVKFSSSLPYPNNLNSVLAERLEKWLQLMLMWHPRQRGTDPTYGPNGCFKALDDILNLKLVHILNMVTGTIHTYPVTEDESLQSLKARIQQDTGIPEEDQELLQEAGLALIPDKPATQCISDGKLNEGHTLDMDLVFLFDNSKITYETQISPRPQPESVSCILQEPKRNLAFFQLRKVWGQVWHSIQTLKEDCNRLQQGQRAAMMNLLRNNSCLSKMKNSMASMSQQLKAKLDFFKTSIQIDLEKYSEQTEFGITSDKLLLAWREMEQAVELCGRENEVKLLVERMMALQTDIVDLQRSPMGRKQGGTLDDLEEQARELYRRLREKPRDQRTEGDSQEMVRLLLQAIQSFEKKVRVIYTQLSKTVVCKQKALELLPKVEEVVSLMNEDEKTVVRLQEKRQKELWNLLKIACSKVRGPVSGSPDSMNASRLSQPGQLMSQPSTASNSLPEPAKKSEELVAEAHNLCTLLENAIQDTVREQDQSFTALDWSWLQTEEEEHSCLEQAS
B2: Speckle-type POZ protein (Homo sapiens), O43791 (parent)
chain: B1 chain
partner: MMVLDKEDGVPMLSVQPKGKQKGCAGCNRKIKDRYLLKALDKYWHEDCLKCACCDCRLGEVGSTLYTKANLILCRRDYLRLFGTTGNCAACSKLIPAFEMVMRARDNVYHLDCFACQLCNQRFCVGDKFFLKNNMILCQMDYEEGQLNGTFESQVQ
B3: Speckle-type POZ protein (Homo sapiens), O43791 (parent)
chain: B1 chain
partner: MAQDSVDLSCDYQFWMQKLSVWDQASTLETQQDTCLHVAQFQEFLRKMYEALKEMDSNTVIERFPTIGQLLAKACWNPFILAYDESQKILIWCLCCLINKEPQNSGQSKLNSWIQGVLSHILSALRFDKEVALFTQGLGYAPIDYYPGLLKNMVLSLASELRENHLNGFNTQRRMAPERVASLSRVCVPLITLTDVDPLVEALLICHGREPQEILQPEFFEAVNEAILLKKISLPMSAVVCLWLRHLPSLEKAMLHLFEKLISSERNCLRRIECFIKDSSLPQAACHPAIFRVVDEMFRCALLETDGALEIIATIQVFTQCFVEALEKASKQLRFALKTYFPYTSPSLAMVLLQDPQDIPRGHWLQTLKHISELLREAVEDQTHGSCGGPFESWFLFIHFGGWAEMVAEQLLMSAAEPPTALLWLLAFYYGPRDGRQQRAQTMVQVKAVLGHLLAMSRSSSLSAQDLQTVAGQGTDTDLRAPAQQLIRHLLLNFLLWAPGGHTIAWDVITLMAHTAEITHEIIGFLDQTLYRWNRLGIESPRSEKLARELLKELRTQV
B4: Speckle-type POZ protein (Homo sapiens), O43791 (parent)
chain: B1 chain
partner: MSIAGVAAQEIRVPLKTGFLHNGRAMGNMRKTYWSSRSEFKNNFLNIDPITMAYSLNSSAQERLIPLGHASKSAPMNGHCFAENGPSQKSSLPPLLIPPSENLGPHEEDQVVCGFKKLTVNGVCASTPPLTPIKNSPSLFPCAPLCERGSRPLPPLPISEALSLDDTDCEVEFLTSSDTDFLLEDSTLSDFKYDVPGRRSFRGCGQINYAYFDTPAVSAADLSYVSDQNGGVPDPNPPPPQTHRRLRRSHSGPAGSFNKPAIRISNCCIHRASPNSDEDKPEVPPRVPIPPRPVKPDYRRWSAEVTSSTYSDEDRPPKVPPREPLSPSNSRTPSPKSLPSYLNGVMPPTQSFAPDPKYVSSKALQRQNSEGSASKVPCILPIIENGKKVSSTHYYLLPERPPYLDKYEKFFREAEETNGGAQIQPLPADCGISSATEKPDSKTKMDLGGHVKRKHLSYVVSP
B5: Speckle-type POZ protein (Homo sapiens), O43791 (parent)
chain: B1 chain
partner: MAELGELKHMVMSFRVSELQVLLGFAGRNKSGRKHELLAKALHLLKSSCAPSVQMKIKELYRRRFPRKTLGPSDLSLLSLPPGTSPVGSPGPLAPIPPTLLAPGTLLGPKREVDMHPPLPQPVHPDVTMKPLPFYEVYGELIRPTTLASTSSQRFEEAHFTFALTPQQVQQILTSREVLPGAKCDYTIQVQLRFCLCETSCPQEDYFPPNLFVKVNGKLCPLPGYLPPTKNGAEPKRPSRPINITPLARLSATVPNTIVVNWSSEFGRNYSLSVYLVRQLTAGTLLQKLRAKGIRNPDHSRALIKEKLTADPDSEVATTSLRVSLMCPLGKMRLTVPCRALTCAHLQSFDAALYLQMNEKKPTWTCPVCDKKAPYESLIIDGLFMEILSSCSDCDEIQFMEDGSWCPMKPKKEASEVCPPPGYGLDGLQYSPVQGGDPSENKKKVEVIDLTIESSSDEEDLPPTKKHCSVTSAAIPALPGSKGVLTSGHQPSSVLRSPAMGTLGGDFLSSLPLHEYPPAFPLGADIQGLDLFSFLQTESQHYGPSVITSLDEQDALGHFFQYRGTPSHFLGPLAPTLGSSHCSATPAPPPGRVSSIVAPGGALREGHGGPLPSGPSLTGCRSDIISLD
B6: Speckle-type POZ protein (Homo sapiens), O43791 (parent)
chain: B1 chain
partner: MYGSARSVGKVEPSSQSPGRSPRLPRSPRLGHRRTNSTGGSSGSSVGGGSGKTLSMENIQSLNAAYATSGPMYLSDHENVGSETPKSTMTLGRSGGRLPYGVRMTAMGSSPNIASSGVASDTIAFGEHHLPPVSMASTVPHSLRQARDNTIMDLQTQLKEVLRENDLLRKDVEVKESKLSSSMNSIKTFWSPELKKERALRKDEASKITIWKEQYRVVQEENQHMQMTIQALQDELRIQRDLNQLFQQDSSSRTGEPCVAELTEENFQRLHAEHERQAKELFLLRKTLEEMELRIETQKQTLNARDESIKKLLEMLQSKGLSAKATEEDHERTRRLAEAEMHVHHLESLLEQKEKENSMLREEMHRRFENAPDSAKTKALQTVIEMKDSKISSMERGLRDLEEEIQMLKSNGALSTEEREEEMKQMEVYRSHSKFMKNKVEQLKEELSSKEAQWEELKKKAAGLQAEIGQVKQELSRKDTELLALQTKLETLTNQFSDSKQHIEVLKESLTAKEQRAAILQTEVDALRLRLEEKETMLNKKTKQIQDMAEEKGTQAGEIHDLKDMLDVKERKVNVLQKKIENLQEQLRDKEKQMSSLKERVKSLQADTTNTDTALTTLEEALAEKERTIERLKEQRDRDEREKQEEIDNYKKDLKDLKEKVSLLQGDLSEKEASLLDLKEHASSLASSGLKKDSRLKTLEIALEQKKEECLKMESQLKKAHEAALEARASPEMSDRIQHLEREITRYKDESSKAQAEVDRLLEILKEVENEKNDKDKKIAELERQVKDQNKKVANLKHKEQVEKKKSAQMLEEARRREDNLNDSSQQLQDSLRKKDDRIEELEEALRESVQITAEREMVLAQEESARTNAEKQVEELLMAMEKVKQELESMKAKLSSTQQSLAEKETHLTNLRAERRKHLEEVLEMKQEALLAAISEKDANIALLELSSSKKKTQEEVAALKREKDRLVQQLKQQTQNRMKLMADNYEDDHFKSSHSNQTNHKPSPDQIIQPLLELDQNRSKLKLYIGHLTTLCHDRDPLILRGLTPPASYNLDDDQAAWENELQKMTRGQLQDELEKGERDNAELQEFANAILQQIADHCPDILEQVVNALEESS

Variants of: B1
Conditions: with ikkb_human IKBKB

Row | effect of a mutation on the interaction | Variant
1 | with no effect | F133V

Variants of: B1
Conditions: with ikkb_human IKBKB
Remark: another data set of the same source

Row | effect of a mutation on the interaction | Variant
2 | with no effect | F133L

Variants of: B1
Conditions: with ikkb_human IKBKB
Remark: another data set of the same source

Row | effect of a mutation on the interaction | Variant
3 | with no effect | F102C

Variants of: B2
Conditions: with rbtn1_human LMO1, P25800

Row | effect of a mutation on the interaction | Variant
4 | with no effect | F102C

Variants of: B2
Conditions: with rbtn1_human LMO1, P25800
Remark: another data set of the same source

Row | effect of a mutation on the interaction | Variant
5 | with no effect | Y87C

Variants of: B2
Conditions: with rbtn1_human LMO1, P25800
Remark: another data set of the same source

Row | effect of a mutation on the interaction | Variant
6 | with no effect | F133V

Variants of: B2
Conditions: with rbtn1_human LMO1, P25800
Remark: another data set of the same source

Row | effect of a mutation on the interaction | Variant
7 | with no effect | F133L

Variants of: B3
Conditions: with fancc_human FANCC

Row | effect of a mutation on the interaction | Variant
8 | with no effect | Y87C

Variants of: B3
Conditions: with fancc_human FANCC
Remark: another data set of the same source

Row | effect of a mutation on the interaction | Variant
9 | with no effect | F133V

Variants of: B3
Conditions: with fancc_human FANCC
Remark: another data set of the same source

Row | effect of a mutation on the interaction | Variant
10 | with no effect | F133L

Variants of: B3
Conditions: with fancc_human FANCC
Remark: another data set of the same source

Row | effect of a mutation on the interaction | Variant
11 | with no effect | F102C

Variants of: B4
Conditions: with errfi_human ERRFI1, Q9UJM3

Row | effect of a mutation on the interaction | Variant
12 | with no effect | F102C

Variants of: B4
Conditions: with errfi_human ERRFI1, Q9UJM3
Remark: another data set of the same source

Row | effect of a mutation on the interaction | Variant
13 | with no effect | F133L

Variants of: B4
Conditions: with errfi_human ERRFI1, Q9UJM3
Remark: another data set of the same source

Row | effect of a mutation on the interaction | Variant
14 | with no effect | F133V

Variants of: B4
Conditions: with errfi_human ERRFI1, Q9UJM3
Remark: another data set of the same source

Row | effect of a mutation on the interaction | Variant
15 | with no effect | Y87C

Variants of: B5
Conditions: with pias3_human PIAS3, Q9Y6X2

Row | effect of a mutation on the interaction | Variant
16 | with no effect | F102C

Variants of: B5
Conditions: with pias3_human PIAS3, Q9Y6X2
Remark: another data set of the same source

Row | effect of a mutation on the interaction | Variant
17 | with no effect | Y87C

Variants of: B5
Conditions: with pias3_human PIAS3, Q9Y6X2
Remark: another data set of the same source

Row | effect of a mutation on the interaction | Variant
18 | with no effect | F133L

Variants of: B5
Conditions: with pias3_human PIAS3, Q9Y6X2
Remark: another data set of the same source

Row | effect of a mutation on the interaction | Variant
19 | with no effect | F133V

Variants of: B6
Conditions: with rb6i2_human ERC1, Q8IUD2

Row | effect of a mutation on the interaction | Variant
20 | with no effect | Y87C

Variants of: B6
Conditions: with rb6i2_human ERC1, Q8IUD2
Remark: another data set of the same source

Row | effect of a mutation on the interaction | Variant
21 | with no effect | F133L

Variants of: B6
Conditions: with rb6i2_human ERC1, Q8IUD2
Remark: another data set of the same source

Row | effect of a mutation on the interaction | Variant
22 | with no effect | F133V

Variants of: B6
Conditions: with rb6i2_human ERC1, Q8IUD2
Remark: another data set of the same source

Row | effect of a mutation on the interaction | Variant
23 | with no effect | F102C
